According to patent US20140056903A1 (Regeneron, published 2014):
Where a chain is given by its changes, count along the chain named. Names may count otherwise. Blank lines part the entries; values can stand above or below the binder they belong to.

Key:
[1] = molecular target: T1, human GFRα3 expressed with a C-terminal myc-myc-hexahistidine tag (human, UniProt O60609 32-374, biotinylated (sites not given) in ELISA format 2 and in the Octet cross-competition; not in SPR); assay: SPR, Ab captured, 25C
T1 construct: also called hGFRα3-mmh; hGFRα3-mmH
Experimental: (§1) Antibodies were tested for binding to human GFRα3 expressed with either a C-terminal myc-myc-hexahistidine tag (hGFRα3-mmh; SEQ ID: 370, a C-terminal hFc tag (hGFRα3-hFc; SEQ ID:371), or a C-terminal mFc tag (hGFRα3-mFc; SEQ ID:372), as well as monkey GFRα3 expressed with a C-terminal myc-myc-hexahistidine tag (MfGFRα3-mmh; SEQ ID:373). Anti-GFRα3 antibodies were captured on either a goat anti-mouse IgG polyclonal antibody (GE Healthcare, #BR-1008-38) or a mouse anti-human IgG monoclonal antibody (GE Healthcare, #BR-1008-39) surface created through direct amine coupling to a Biacore CM5 sensor chip. Kinetic experiments were carried out using HBS-EP (10 mM HEPES, 150 mM NaCl, 3 mM EDTA, 0.05% Surfactant P20, at pH 7.4) or PBS buffer containing 0.05% v/v surfactant P20 as both the running buffer and the sample buffer. Binding to human GFRα3-mmh or monkey GFRα3-mmh was evaluated by injecting several concentrations ranging from 200 to 7.4 nM (3-fold dilutions) across the captured antibody surface. Binding to human GFRα3-mFc or human GFRα3-hFc was evaluated by injecting several concentrations ranging from 100 to 3.7 nM (3-fold dilutions) across the captured antibody surface. Antibody-antigen association was monitored for up to 4 minutes, while dissociation in buffer was monitored for up to 20 minutes. Kinetic association (kₐ) and dissociation (kd) rate constants were determined by processing and fitting the data to a 1:1 binding model using Scrubber 2.0c curve fitting software. Binding dissociation equilibrium constants (KD) and dissociative half-lives (t_{1/2}) were calculated from the kinetic rate constants as: KD (M)=kd/kₐ and t_{1/2} (min)=[ln 2/(60*kd)].

[2] = molecular target: T2, human GFRα3 expressed with a C-terminal mFc tag (human); assay: SPR, Ab captured, 25C
T2 construct: also called hGFRα3-mFc
T2 chain: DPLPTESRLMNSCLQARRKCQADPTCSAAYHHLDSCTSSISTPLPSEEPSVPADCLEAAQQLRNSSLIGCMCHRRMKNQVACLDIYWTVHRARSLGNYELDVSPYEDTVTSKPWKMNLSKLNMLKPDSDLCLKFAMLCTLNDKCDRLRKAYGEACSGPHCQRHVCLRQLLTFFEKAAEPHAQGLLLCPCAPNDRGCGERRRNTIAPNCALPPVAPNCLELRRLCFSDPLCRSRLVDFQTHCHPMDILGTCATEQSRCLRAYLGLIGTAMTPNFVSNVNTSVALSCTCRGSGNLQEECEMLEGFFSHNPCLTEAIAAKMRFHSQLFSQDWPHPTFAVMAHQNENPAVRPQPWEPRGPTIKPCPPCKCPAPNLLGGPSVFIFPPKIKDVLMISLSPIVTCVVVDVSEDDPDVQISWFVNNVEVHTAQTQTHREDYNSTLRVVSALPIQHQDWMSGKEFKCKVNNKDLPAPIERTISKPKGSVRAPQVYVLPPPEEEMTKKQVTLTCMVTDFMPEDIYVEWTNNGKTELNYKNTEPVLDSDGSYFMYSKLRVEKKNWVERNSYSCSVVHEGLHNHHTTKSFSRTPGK
Experimental: as §1

[3] = molecular target: T3, monkey GFRα3 expressed with a C-terminal myc-myc-hexahistidine tag (monkey (Mf), UniProt O60609 32-374 (human entry), limits assumed); assay: SPR, Ab captured, 25C
T3 construct: also called MfGFRα3-mmh; MfGFRα3-mmH
T3 chain: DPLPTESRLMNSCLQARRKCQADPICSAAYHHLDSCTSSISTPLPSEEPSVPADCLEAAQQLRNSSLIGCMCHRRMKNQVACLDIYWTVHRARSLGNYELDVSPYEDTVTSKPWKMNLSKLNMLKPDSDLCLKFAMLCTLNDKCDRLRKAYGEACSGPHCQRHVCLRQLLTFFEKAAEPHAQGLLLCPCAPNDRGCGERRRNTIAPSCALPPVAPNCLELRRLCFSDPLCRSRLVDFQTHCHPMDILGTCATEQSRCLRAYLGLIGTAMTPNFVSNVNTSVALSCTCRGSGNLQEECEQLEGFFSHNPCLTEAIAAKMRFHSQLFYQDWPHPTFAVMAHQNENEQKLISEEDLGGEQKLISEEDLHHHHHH
Experimental: as §1

[4] = molecular target: T1, human GFRα3 expressed with a C-terminal …; assay: Octet cross-competition; biotin-hGFRα3-mmH pre-saturated with first antibody H4H2243N2
Experimental: A cross-competition assay was conducted to assess the ability of select antibodies to compete with one another for binding to human GFRα3 using an Octet RED384 biosensor (Fortebio Inc.). The entire experiment was performed at 25° C. with the flow rate of 1000 rpm in Octet HBST buffer (0.01 M HEPES pH7.4, 0.15M NaCl, 3 mM EDTA, 0.05% v/v Surfactant P20, 0.1 mg/mL BSA). To assess whether 2 antibodies were able to compete with one another for binding to their respective epitopes on biotinylated recombinant human GFRα3 expressed with a C-terminal myc-myc-hexahistidine tag (biotin-hGFRα3-mmH; SEQ ID:370), around ˜1.2 nm of biotin-hGFRα3-mmH was first captured onto streptavidin-coated Octet sensor tips (Fortebio Inc, #18-5019) by submerging the tips for 1 minute into a 10 μg/mL solution of biotin-hGFRα3-mmH. The antigen coated sensor tips were then placed into wells containing 25 μg/mL solution of a first anti-GFRα3 monoclonal antibody for 4 minutes to saturate the biotin-hGFRα3-mmH surface. The sensor tips were then subsequently dipped into wells containing 25 μ/mL solution of a second anti-GFRα3 monoclonal antibody. The sensor tips were washed in Octet HBST buffer in between every step of the experiment. The real-time binding response was monitored during the course of the experiment and the binding response at the end of every step was recorded as shown in FIG. 9. The response of mAb-2 binding to biotin-hGFRα3-mmH pre-complexed with the first antibody was compared and competitive/non-competitive behavior of different anti-GFRα3 monoclonal antibodies was determined.

- Kd [1]: 1.68 nM
- koff [1]: 0.000267 s⁻¹
- kon [1]: 159000 M⁻¹ s⁻¹
- t1/2 [1]: 0.717 h
- Kd [2]: ≤ 0.00168 nM
- koff [2]: ≤ 1e-06 s⁻¹
- kon [2]: 596000 M⁻¹ s⁻¹
- t1/2 [2]: 192 h
- Kd [3]: 1.39 nM
- koff [3]: 0.00013 s⁻¹
- kon [3]: 93800 M⁻¹ s⁻¹
- t1/2 [3]: 1.48 h
B1: H4H2341S (antibody, human IgG4, V domains shown)
VH: EVQLVESGAEVKKSGSSVKVSCKASGGTFSRYAISWVRQAPGQGLEWMGGIIPLFGTLNYAQKFQGRVTLTTDESTSTAYMELSSLRSEDTAVYYCAVFYYGSGSYRNWFDPWGQGTLVTVSS
VL: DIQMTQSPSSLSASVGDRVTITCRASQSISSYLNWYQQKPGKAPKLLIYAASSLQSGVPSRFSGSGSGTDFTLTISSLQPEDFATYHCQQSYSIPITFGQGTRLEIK
notes: human IgG4 Fc (H4H)

- Kd [1]: 29.7 nM
- koff [1]: 0.00323 s⁻¹
- kon [1]: 109000 M⁻¹ s⁻¹
- t1/2 [1]: 0.0667 h
- Kd [2]: 0.0584 nM
- koff [2]: 3.01e-05 s⁻¹
- kon [2]: 516000 M⁻¹ s⁻¹
- t1/2 [2]: 6.4 h
- Kd [3]: 28.7 nM
- koff [3]: 0.00279 s⁻¹
- kon [3]: 97500 M⁻¹ s⁻¹
- t1/2 [3]: 0.0667 h
B2: H4H2345S (antibody, human IgG4, V domains shown)
VH: EVQLVESGGGLVRPGRSLRLSCAASGFTFDNYAMHWVRQVPGKGLEWVSGITWNSVSLGYADSVKGRFTISRDNAQNSLYLQMNSLRTVDTALYYCAKDRWGGSYYFDFWGQGTLVTVSS
VL: DIVMTQSPSSLSASVGDRVTITCRASQGISNYLAWYQQKPGKVPKLLIYSASTLQSGVPSRFSGSGSGTDFTLTISNLQPEDFATFFCQKYNSAPTFGGGTKVEIK
notes: human IgG4 Fc (H4H)

- binding response of second antibody (nm) [4]: 0.22 nm
B3: H4H2212N (antibody, human IgG4, V domains shown)
VH: EVQLLESGGGLVQPGGSLRLSCAASGFTFSSYAMSWVRQGPGKGLEWVSGISGSGGSTYNADSVKGRFTISRDNSKNTLYLQMNSLRAEDTAVYYCAKDSGTYWYYFDYWGQGILVTVSS
VL: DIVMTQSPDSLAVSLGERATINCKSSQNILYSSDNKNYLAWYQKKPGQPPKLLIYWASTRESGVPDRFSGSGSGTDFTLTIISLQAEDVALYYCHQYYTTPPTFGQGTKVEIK
notes: human IgG4 Fc (H4H)

- Kd [1]: 1.31 nM
- koff [1]: 0.00024 s⁻¹
- kon [1]: 183000 M⁻¹ s⁻¹
- t1/2 [1]: 0.8 h
- Kd [2]: 0.00269 nM
- koff [2]: 1.56e-06 s⁻¹
- kon [2]: 579000 M⁻¹ s⁻¹
- t1/2 [2]: 123 h
- Kd [3]: 1.1 nM
- koff [3]: 0.000115 s⁻¹
- kon [3]: 104000 M⁻¹ s⁻¹
- t1/2 [3]: 1.68 h
B4: H4H2344S (antibody, human IgG4, V domains shown)
VH: EVQLVESGGGVVQPGRSLRLSCAASGFSFSDYVMHWVRQAPGKGLEWVASIWFDGSNEFYADSVKGRFTISRDNSKNTLFLQMNSLRAEDTAVYYCAKKGVLVATSAFDIWGQGTMVTVSS
VL: DIQMTQSPSSLSASVGDRVTITCRASQSINNYLNWYHQKPGKAPKLLIYAASSLQSGVPSRFSGSGSGTDYTLTISSLQPEDFGNYYCQQSYRTSMYTFGQGTKVEIK
notes: human IgG4 Fc (H4H)

- Kd [1]: 0.43 nM
- koff [1]: 7.99e-05 s⁻¹
- kon [1]: 186000 M⁻¹ s⁻¹
- t1/2 [1]: 2.42 h
- Kd [2]: 0.0222 nM
- koff [2]: 1.44e-05 s⁻¹
- kon [2]: 647000 M⁻¹ s⁻¹
- t1/2 [2]: 13.4 h
- Kd [3]: 0.556 nM
- koff [3]: 5.98e-05 s⁻¹
- kon [3]: 108000 M⁻¹ s⁻¹
- t1/2 [3]: 3.22 h
B5: H4H2346S (antibody, human IgG4, V domains shown)
VH: B4 VH with E1Q
VL: B4 VL with D1E, Q3V
notes: human IgG4 Fc (H4H)

- Kd [1]: 0.219 nM
- koff [1]: 0.000127 s⁻¹
- kon [1]: 581000 M⁻¹ s⁻¹
- t1/2 [1]: 1.52 h
- Kd [2]: 0.00159 nM
- koff [2]: 1.93e-06 s⁻¹
- kon [2]: 1.22e+06 M⁻¹ s⁻¹
- t1/2 [2]: 99.8 h
- Kd [3]: 0.144 nM
- koff [3]: 4.17e-05 s⁻¹
- kon [3]: 290000 M⁻¹ s⁻¹
- t1/2 [3]: 4.62 h
B6: H4H2293P (antibody, human IgG4, V domains shown)
VH: B4 VH with E1Q, F59L, D109H
VL: B4 VL with D1A, S28N, K45N, R93S, V105L
notes: human IgG4 Fc (H4H)

- Kd [1]: 0.548 nM
- koff [1]: 0.00011 s⁻¹
- kon [1]: 200000 M⁻¹ s⁻¹
- t1/2 [1]: 1.75 h
- Kd [2]: 0.0189 nM
- koff [2]: 1.09e-05 s⁻¹
- kon [2]: 580000 M⁻¹ s⁻¹
- t1/2 [2]: 17.6 h
- Kd [3]: 0.574 nM
- koff [3]: 6.23e-05 s⁻¹
- kon [3]: 109000 M⁻¹ s⁻¹
- t1/2 [3]: 3.08 h
B7: H4H2354S (antibody, human IgG4, V domains shown)
VH: B4 VH with E1Q
VL: B4 VL with M4L
notes: human IgG4 Fc (H4H); also called H4H2354S-1

- Kd [1]: 0.104 nM
- koff [1]: 3.67e-05 s⁻¹
- kon [1]: 353000 M⁻¹ s⁻¹
- t1/2 [1]: 5.25 h
- Kd [2]: ≤ 0.0013 nM
- koff [2]: ≤ 1e-06 s⁻¹
- kon [2]: 771000 M⁻¹ s⁻¹
- t1/2 [2]: 192 h
- Kd [3]: 1.06 nM
- koff [3]: 0.00013 s⁻¹
- kon [3]: 122000 M⁻¹ s⁻¹
- t1/2 [3]: 1.48 h
B8: H4H2364S (antibody, human IgG4, V domains shown)
VH: EVQLVESGGGLEQPGGSLRLSCAASGFTFSSYVMSWVRQVPGKGLEWVSVISGSGGSTYYADSVKGRFTISRDNSKNTLYLQMNSLRAEDTAVYYCAKPSSYSSSNFHYGMDVWGQGTTVTVSS
VL: DIQMTQSPYSVSASVGDRVTITCRASQGISSWLAWYQQKPGRAPKLLIYAASSLQSGVPSRFSGSGSGTDFTLTISSLQPEDFATYYCQKTNSFPFTFGPGTKVEIK
notes: human IgG4 Fc (H4H)

- Kd [1]: 0.253 nM
- koff [1]: 0.000233 s⁻¹
- kon [1]: 922000 M⁻¹ s⁻¹
- t1/2 [1]: 0.833 h
- binding response of second antibody (nm) [4]: 0.3 nm
B9: H4H2236N3 (antibody, human IgG4, V domains shown)
VH: EVQLLESGGNLVQPGGSLRLSCAASGFTFSSYAMTWVRQAPGKGLEWVSTISGSGTSTYYADSVKGRFTISRDNSRDTVFLQMNSLRAEDTAVYYCSKPSALRFLHWLAMDVWGQGTLVTVSS
VL: DIQMTQSPSSLSAFVGDRVTITCRASQDIRNYLDWFQQKPGKAPKSLIYAASNLQSGVPSRFGGSGSGTDFTLTINSLQPEDFVTYYCQQYNSYPPTFGGGTKVEIK
notes: human IgG4 Fc (H4H)

- Kd [1]: 2.92 nM
- koff [1]: 0.00078 s⁻¹
- kon [1]: 267000 M⁻¹ s⁻¹
- t1/2 [1]: 0.25 h
- binding response of second antibody (nm) [4]: 0.06 nm
B10: H4H2243N2 (antibody, human IgG4, V domains shown)
VH: QVQLVQSGAEVKKPGASVKVSCKASGYTFTSYGIIWVRQAPGQGLEWMGWISGYNGNTNYAQNLQGRVTMTTDTSTTTAYMELRSLRSDDTAVYYCARWGIATRPYYYYGMDVWGQGTTVTVSS
VL: B9 VL with F14S, R30T, D34A, N53S, R61K, G63S, N76S, V84A, G100P, E105D
notes: human IgG4 Fc (H4H)
